Results reported in patent publication US20190359693A1.

How the values were obtained:
Assay in all cases: cell-based or functional assay
[1] = molecular target: hemagglutinin (HA) of influenza virus B/Florida/04/06 (Yamagata) (influenza B virus)
[2] = molecular target: hemagglutinin (HA) of influenza virus B/Harbin/7/94 (Yamagata) (influenza B virus)
[3] = molecular target: hemagglutinin (HA) of influenza virus B/Lee/40 (Old) (influenza B virus) (UniProt P03460)
[4] = molecular target: hemagglutinin (HA) of influenza virus B/Malaysia/2506/04 (Victoria) (influenza B virus)
[5] = molecular target: hemagglutinin (HA) of influenza virus B/Massachusetts/02/12 (Yamagata) (influenza B virus)
[6] = molecular target: hemagglutinin (HA) of influenza virus H10N7 A/Chick/Germany/N/49 (influenza A virus)
[7] = molecular target: hemagglutinin (HA) of influenza virus H10N8 A/Jiangxi/346/2013 (influenza A virus)
[8] = molecular target: hemagglutinin (HA) of influenza virus H11N9 A/Northern Pintail/MPC2085/07 (influenza A virus)
[9] = molecular target: hemagglutinin (HA) of influenza virus H14N5 A/Mallard/Astrakhan/263/1982 (influenza A virus)
[10] = molecular target: hemagglutinin (HA) of influenza virus H1N1 A/Puerto Rico/8/34-MA (influenza A virus)
[11] = molecular target: hemagglutinin (HA) of influenza virus H1N1 A/Solomon Islands/3/2006 (IVR 145) (influenza A virus)
[12] = molecular target: hemagglutinin (HA) of influenza virus H1N1 A/WSN/33 (influenza A virus) (UniProt P03454)
[13] = molecular target: hemagglutinin (HA) of influenza virus H1N2 A/Env/HK/MPU3156/05 (influenza A virus)
[14] = molecular target: hemagglutinin (HA) of influenza virus H2N2 A/AnnArbor/23/57 (influenza A virus)
[15] = molecular target: hemagglutinin (HA) of influenza virus H2N2 A/Guiyang/1/57 (influenza A virus)
[16] = molecular target: hemagglutinin (HA) of influenza virus H3N2 A/Brisbane/10/07 (influenza A virus)
[17] = molecular target: hemagglutinin (HA) of influenza virus H3N2 A/Fukui/45/04 (influenza A virus)
[18] = molecular target: hemagglutinin (HA) of influenza virus H3N2 A/HK/1174/99 (influenza A virus)
[19] = molecular target: hemagglutinin (HA) of influenza virus H3N2 A/Hiroshima/52/05 (influenza A virus)
[20] = molecular target: hemagglutinin (HA) of influenza virus H3N2 A/Johannesburg/33/94 (influenza A virus)
[21] = molecular target: hemagglutinin (HA) of influenza virus H3N2 A/Panama/2007/99 (influenza A virus)
[22] = molecular target: hemagglutinin (HA) of influenza virus H3N2 A/Perth/16/09 (influenza A virus)
[23] = molecular target: hemagglutinin (HA) of influenza virus H3N2 A/Wisconsin/67/05 (influenza A virus)
[24] = molecular target: hemagglutinin (HA) of influenza virus H4 A/WF/HK/MPA892/06 (influenza A virus)
[25] = molecular target: hemagglutinin (HA) of influenza virus H4N1 A/Northern Pintail/MPB1368/06 (influenza A virus)
[26] = molecular target: hemagglutinin (HA) of influenza virus H4N6 A/Great Cormorant/MPB1683/06 (influenza A virus)
[27] = molecular target: hemagglutinin (HA) of influenza virus H5N1 A/Indonesia/5/05 (influenza A virus)
[28] = molecular target: hemagglutinin (HA) of influenza virus H5N1 A/PR8 H5N1 HK97 (influenza A virus)
[29] = molecular target: hemagglutinin (HA) of influenza virus H5N1 A/Vietnam/1194/04 (influenza A virus)
[30] = molecular target: hemagglutinin (HA) of influenza virus H5N2 A/Eurasian Wigeon/HK/MPF333/07 (influenza A virus)
[31] = molecular target: hemagglutinin (HA) of influenza virus H6N1 A/Eurasian Wigeon/MPG1884/09 (influenza A virus)
[32] = molecular target: hemagglutinin (HA) of influenza virus H6N8 A/Eurasian Wigeon/MPD411/07 (influenza A virus)
[33] = molecular target: hemagglutinin (HA) of influenza virus H7N3 A/NIBRG/60 (A/mallard/Netherlands/12/00) (influenza A virus)
[34] = molecular target: hemagglutinin (HA) of influenza virus H7N7 A/Common Teal/MPF139/07 (influenza A virus)
[35] = molecular target: hemagglutinin (HA) of influenza virus H7N7 A/Netherlands/219/2003 (influenza A virus)
[36] = molecular target: hemagglutinin (HA) of influenza virus H7N7 A/Northern Shoveler/MPF518/08 (influenza A virus)
[37] = molecular target: hemagglutinin (HA) of influenza virus H7N7 A/PR8 H7N7-NY (influenza A virus)
[38] = molecular target: hemagglutinin (HA) of influenza virus H7N9 A/Anhui/1/13 (influenza A virus)
[39] = molecular target: hemagglutinin (HA) of influenza virus H7N9 A/Shanghai/2/13 (influenza A virus)
[40] = molecular target: hemagglutinin (HA) of influenza virus H8N2 A/Env/MPJ1258/09 (influenza A virus)
[41] = molecular target: hemagglutinin (HA) of influenza virus H8N4 A/Eurasian Wigeon/MPH571/08 (influenza A virus)
[42] = molecular target: hemagglutinin (HA) of influenza virus H9N2 A/Ck/HK/SSP176/09 (influenza A virus)
[43] = molecular target: hemagglutinin (HA) of influenza virus H9N2 A/Great Cormorant/MP2934/04 (influenza A virus)

Sequence of hemagglutinin (HA) of influenza virus B/Lee/40 (Old) (influenza B virus) (P03460 16-584 limits assumed): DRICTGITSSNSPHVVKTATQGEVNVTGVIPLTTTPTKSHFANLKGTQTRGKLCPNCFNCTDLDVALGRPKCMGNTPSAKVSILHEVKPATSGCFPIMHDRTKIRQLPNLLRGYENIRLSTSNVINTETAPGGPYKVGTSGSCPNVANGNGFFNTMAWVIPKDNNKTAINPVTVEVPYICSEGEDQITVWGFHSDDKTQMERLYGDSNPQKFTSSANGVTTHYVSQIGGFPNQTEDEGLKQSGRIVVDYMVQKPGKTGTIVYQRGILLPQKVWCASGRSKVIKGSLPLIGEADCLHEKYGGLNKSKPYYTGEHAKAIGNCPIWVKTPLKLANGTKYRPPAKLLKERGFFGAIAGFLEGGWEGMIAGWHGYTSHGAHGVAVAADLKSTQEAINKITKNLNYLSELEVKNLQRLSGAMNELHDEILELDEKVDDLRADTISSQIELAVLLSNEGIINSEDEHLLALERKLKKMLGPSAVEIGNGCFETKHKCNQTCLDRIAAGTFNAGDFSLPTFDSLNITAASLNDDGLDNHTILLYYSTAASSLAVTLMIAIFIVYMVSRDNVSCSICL

B1: MD2407 (bispecific antibody)
chain: EVQLVESGGGLVQPGGSLRLSCAVSISIFDIYAMDWYRQAPGKQRDLVATSFRDGSTNYADSVKGRFTISRDNAKNTLYLQMNSLKPEDTAVYLCHVSLYRDPLGVAGGMGVYWGKGALVTVSSGGGGSGGGGSEVQLVESGGGLVQAGGSLKLSCAASGRTYAMGWFRQAPGKEREFVAHINALGTRTYYSDSVKGRFTISRDNAKNTEYLEMNNLKPEDTAVYYCTAQGQWRAAPVAVAAEYEFWGQGTQVTVSSGGGGSGGGGSEVQLVESGGGLVQPGGSLRLSCAATGFTLENKAIGWFRQTPGSEREGVLCISKSGSWTYYTDSMRGRFTISRDNAENTVYLQMDSLKPEDTAVYYCATTTAGGGLCWDGTTFSRLASSWGQGTQVTVSSGGGGSGGGGSEVQLVESGGGLVQPGGSLKLSCAASGFTFSTSWMYWLRQAPGKGLEWVSVINTDGGTYYADSVKDRFTISRDNAKDTLYLQMSSLKSEDTAVYYCAKDWGGPEPTRGQGTQVTVSS
- average neutralization titer [1]: 7.6 nM
- average neutralization titer [2]: 6.4 nM
- average neutralization titer [3]: 18.4 nM
- average neutralization titer [4]: 9.2 nM
- average neutralization titer [5]: 3 nM
- average neutralization titer [6]: 13.2 nM
- average neutralization titer [7]: 30.4 nM
- average neutralization titer [8]: 34.5 nM
- average neutralization titer [9]: 19.2 nM
- average neutralization titer [10]: 7.3 nM
- average neutralization titer [11]: 5.4 nM
- average neutralization titer [12]: 4.8 nM
- average neutralization titer [13]: 25.6 nM
- average neutralization titer [14]: 101 nM
- average neutralization titer [15]: 126 nM
- average neutralization titer [16]: 10.6 nM
- average neutralization titer [17]: 19.2 nM
- average neutralization titer [18]: 76 nM
- average neutralization titer [19]: 10.5 nM
- average neutralization titer [20]: 11.6 nM
- average neutralization titer [21]: 14.9 nM
- average neutralization titer [22]: 8.1 nM
- average neutralization titer [23]: 19.1 nM
- average neutralization titer [24]: 6.8 nM
- average neutralization titer [25]: 8.2 nM
- average neutralization titer [26]: 4.8 nM
- average neutralization titer [27]: 16.2 nM
- average neutralization titer [28]: 3.6 nM
- average neutralization titer [29]: 9.2 nM
- average neutralization titer [30]: 26 nM
- average neutralization titer [31]: 20.6 nM
- average neutralization titer [32]: 20.9 nM
- average neutralization titer [33]: 13.8 nM
- average neutralization titer [34]: 57.4 nM
- average neutralization titer [35]: 33 nM
- average neutralization titer [36]: 36.1 nM
- average neutralization titer [37]: 22.3 nM
- average neutralization titer [38]: 64.6 nM
- average neutralization titer [39]: 54.2 nM
- average neutralization titer [40]: 8.8 nM
- average neutralization titer [41]: 15.1 nM
- average neutralization titer [42]: 23 nM
- average neutralization titer [43]: 19.6 nM
